Here are results for 1 protein from patent US20090042269.

A word on the KM: it is the substrate concentration at which the rate is half of its maximum. By kcat/KM is commonly meant the turnover number divided by the Michaelis constant.

In this data set the target is reduced RNase (reduced pancreatic RNase).

B1: bovine QSOX1 (quiescin Q6 sulfhydryl oxidase 1) isolated from milk (protein)
chain: SALYSSSDPLTLLRADTVRSTVLGSSSAWAVEFFASWCGHCIAFAPTWKALANDVKDWRPALNLAALDCAEETNSAVCRDFNIPGFPTVRFFKAFSKTGSGTTLSVAGADVQTLRERLIDALESHSDTWPPACPPLEPARLEEITGFFARNNEEYLALIFEKEGSYLGREVTLDLSQHQGIAVRRVLNTERDVVNRFGVTNFPSCYLLSRNGSFSRVPALTESRSFYTTYLRKFSGSTRGAVQTTAAPATTSAVAPTVWKVADRSKIYMADLESALHYILRIEVGKFSVLEGQRLVALKKFMAVLAKYFRGRPLVQNFLHSMNDWLKKQQRKKIPYGFFKNALDSRKEGTVIAEKVNWVGCQGSEPHFRGFPCSLWILFHFLTVQAAQEGVDHPQERAKAQEVLQAIRGYVRFFFGCRECAGHFEQMASGSMHRVGSLNSAVLWFWSSHNKVNARLAGAPSEDPQFPKVQWPPRELCSACHNELRGTPVWDLDNILKFLKTHFSPSNIVLDFPSAGPGPWR
Regarding B1, the KM stood at 60 µM; the kcat (min^-1), thiols oxidized per minute was found to be 1340 min⁻¹; the specificity constant (kcat/KM) turned out to be 374000 M⁻¹ s⁻¹.
